According to PMC12548442:

Assays:
Assay in all cases: NanoBRET
[1] = molecular target: HaloTag-fused and NanoLuc-fused Gag-MA-G2A (NanoBRET pair); settings: living cells; n = 6; mean ± SE; WMAA signal subtracted; parent: est. 100
[2] = molecular target: HaloTag-fused and NanoLuc-fused Gag-MA-S9A (NanoBRET pair); settings: living cells; n = 6; mean ± SE; WMAA signal subtracted; parent: est. 100; read off a plot
[3] = molecular target: HaloTag-fused and NanoLuc-fused Gag-MA-S9F (NanoBRET pair); settings: living cells; n = 6; mean ± SE; WMAA signal subtracted; parent: est. 100; read off a plot
[4] = molecular target: HaloTag-fused and NanoLuc-fused Gag-MA-S9I (NanoBRET pair); settings: living cells; n = 6; mean ± SE; WMAA signal subtracted; parent: est. 100; read off a plot
[5] = molecular target: HaloTag-fused and NanoLuc-fused Gag-MA-S9W (NanoBRET pair); settings: living cells; n = 6; mean ± SE; WMAA signal subtracted; parent: est. 100; read off a plot
[6] = molecular target: HaloTag-fused and NanoLuc-fused Gag-CA-WM184/185AA (NanoBRET pair); settings: living cells; n = 6; mean ± SE; WMAA signal subtracted; parent: est. 100; read off a plot

HaloTag-fused Gag and NanoLuc-fused Gag, wild type (NanoBRET pair) G2A
percent of parent [1]: 0%

HaloTag-fused Gag and NanoLuc-fused Gag, wild type (NanoBRET pair) S9A
percent of parent [2]: 72%

HaloTag-fused Gag and NanoLuc-fused Gag, wild type (NanoBRET pair) S9F
percent of parent [3]: 8.6%

HaloTag-fused Gag and NanoLuc-fused Gag, wild type (NanoBRET pair) S9I
percent of parent [4]: 68%

HaloTag-fused Gag and NanoLuc-fused Gag, wild type (NanoBRET pair) S9W
percent of parent [5]: 42%

HaloTag-fused Gag and NanoLuc-fused Gag, wild type (NanoBRET pair) W184A; M185A
percent of parent [6]: 0%
